According to paper PMC7768682 (Proceedings of the National Academy of Sciences of the …, 2020):
Ends that are not written are not given here.

Experiments:
Test in all cases: BLI
talin head t1-435 = talin head t1-435 (human, UniProt Q9Y490 1-435)
talin head t1-400 = talin head t1-400 (human, UniProt Q9Y490 1-400)
talin head t1-405 = talin head t1-405 (human, UniProt Q9Y490 1-405)
Sequence of talin head t1-405 (Q9Y490 1-405): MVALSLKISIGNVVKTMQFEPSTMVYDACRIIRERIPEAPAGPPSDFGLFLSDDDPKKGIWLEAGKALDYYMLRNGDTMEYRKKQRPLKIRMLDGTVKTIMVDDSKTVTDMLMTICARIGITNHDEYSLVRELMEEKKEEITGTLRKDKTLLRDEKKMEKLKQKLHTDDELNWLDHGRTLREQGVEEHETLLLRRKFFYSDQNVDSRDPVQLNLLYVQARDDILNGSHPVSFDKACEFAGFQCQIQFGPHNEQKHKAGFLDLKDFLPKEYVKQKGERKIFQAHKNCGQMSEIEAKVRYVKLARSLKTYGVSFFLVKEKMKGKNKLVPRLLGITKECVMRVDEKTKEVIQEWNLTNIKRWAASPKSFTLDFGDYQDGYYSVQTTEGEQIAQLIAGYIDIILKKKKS

Sequence of talin head t1-400 (Q9Y490 1-400): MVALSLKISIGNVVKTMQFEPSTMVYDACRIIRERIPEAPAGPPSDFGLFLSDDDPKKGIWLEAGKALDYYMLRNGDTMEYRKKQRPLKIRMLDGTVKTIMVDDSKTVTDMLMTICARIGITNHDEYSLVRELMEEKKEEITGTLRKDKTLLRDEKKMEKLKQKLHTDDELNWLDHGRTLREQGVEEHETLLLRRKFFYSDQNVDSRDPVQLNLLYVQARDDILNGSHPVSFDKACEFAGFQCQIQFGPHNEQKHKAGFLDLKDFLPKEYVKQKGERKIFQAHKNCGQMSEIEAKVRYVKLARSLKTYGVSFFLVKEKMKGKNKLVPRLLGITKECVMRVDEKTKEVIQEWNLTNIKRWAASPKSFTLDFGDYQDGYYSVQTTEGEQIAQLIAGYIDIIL
Sequence of talin head t1-435 (Q9Y490 1-435): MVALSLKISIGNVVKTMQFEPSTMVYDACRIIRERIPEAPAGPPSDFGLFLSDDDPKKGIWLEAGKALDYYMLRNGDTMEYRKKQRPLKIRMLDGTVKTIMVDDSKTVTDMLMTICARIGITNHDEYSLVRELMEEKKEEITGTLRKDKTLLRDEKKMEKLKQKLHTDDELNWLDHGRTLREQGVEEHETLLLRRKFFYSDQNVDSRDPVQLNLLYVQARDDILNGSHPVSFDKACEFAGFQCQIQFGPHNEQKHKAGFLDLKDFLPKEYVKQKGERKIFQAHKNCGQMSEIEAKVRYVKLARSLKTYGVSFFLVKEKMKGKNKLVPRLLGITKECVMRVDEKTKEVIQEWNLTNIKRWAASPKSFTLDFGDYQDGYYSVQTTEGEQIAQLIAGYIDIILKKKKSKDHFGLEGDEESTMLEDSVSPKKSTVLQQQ

- binding result (talin head t1-435): binds
- binding result (talin head t1-400): binds
- binding result (talin head t1-405): binds
Binder: {GST}-GSKLLITIHDRKEFAKFEEERARAKWDTANNPLYKEATSTFTNITYRGT (domain or fragment) [GST-integrin β3 cytoplasmic tail fusion, wild type (WT-β3)]
